The values that follow come from patent US20250152743A1, “SYNPOPTOSIS CIRCUITS FOR PROGRAMMABLE CELL DEATH CONTROL” (California Institute of Technology, priority 2023, published 2025).

Assay [1] deals with HEK cells. Kind of assay: Transient DNA transfection of HEK cells, Annexin/Sytox staining, flow cytometry. It counts as cell-based, human. To be noted: for cell death without the activating TEVP: expressed at high levels indicated by co-transfected Cherry. As to the method:
HEK cells were transiently co-transfected with DNA encoding the circuits, often along with Cherry, a fluorescent protein marker, and cells were analyzed by flow cytometry 16 to 24 hours later. To quantify cell death, the cells were strained with Annexin, Sytox, or both. Annexin stains apoptotic cells by binding to phosphatidylserine exposed on the outer leaflet, and pyroptotic cells by binding to phosphatidylserine in the inner leaflet after membrane permeabilization. In contrast, Sytox, a membrane-impermeable dye, primarily stains pyroptotic cells. Therefore, apoptotic cells are typically Annexin-high and Sytox-low, while pyroptotic cells are Annexin-high and Sytox-high (FIG. 7B). For simplicity, in experiments involving only a single death mode, a single relevant dye was often used. To focus on cells influenced by the circuits, the fraction of Annexin- or Sytox-positive cells was calculated after gating on the fluorescent co-transfection marker (FIG. 7C).
On the day before transfection, HEK cells were seeded at a density of 0.3-0.6 million cells per well on a 12-well plate, 0.1-0.3 million cells per well on a 24-well plate, or 15,000-50,000 cells per well on a 96-well plate. The cells were allowed to attach to the plate overnight, for at least 8 hours. On the day of transfection, we treated the cells with purified DNA plasmids encoding circuit components. In addition to plasmids encoding circuit components, we often included a plasmid encoding a fluorescent co-transfection marker, at roughly 50 ng DNA per well on a 24-well plate. Given the different number of molecular components in each synthetic circuit and their various relative ratios, the total amount of DNA ranged from 50 to 1 μg per well on a 24-well plate, and was scaled by […] when other 12-well or 96-well plates were used, respectively. On the same plate, we often equalized the total amount of DNA across all transfected wells, using a filler plasmid encoding the neomycin resistance gene. To transfect cells with plasmid DNA, we used three types of transfection reagents—Lipofectamine 2000 (Thermo Fisher), Lipofectamine 3000 (Thermo Fisher), and FuGENE HD (Promega), according to manufacturers' instructions. Briefly, for a typical transfection experiment on a 24-well plate, we mixed plasmids and the transfection reagent, around 200 ng of DNA per 1 μl of Lipofectamine 2000, in 25 μl of Opti-MEM reduced serum medium (Thermo Fisher), incubated the mixture for 5-10 min at room temperature, and then added another 25 μl of Opti-MEM before transferring the mixture dropwise to culture wells. We also performed some transfection experiments using the Lipofectamine 3000 kit (Thermo Fisher), at a ratio of 2,000 ng of DNA, 2 ul of 4 ul of P3000, and 3 μl of Lipofectamine 3000. We similarly diluted the mixture in Opti-MEM before adding it to cells. For transfection with FuGENE, we used a ratio of 4 μl FuGENE:1 μg of DNA, and incubated the DNA-FuGENE mixture at room temperature for 5 min before transfection. To enable protein expression from plasmids with a doxycycline-inducible promoter, doxycycline was added to the cell culture at a final concentration of 100 ng/mL. In experiments involving Q-VD-OPh, the compound was added to the cell culture at a final concentration of 30 μM, immediately after the cells received the transfection mixture. To transfect cells with in vitro transcribed mRNA, Lipofectamine MessengerMax (Thermo Fisher) was used. Briefly, for transfection of one well in a 96-well plate, 0.1 μL of Lipofectamine MessengerMAX was diluted in 1.25 μL Opti-MEM and incubated for 10 minutes at room temperature. mRNA was then added to Opti-MEM to the appropriate conditions at the following amounts: 12.5 ng of fluorescent co-transfection marker, 56.25 ng of protease, and 56.25 ng of engineered executioner. Diluted mRNA was then added to diluted MessengerMAX reagent and incubated for 5 minutes at room temperature before addition to Jurkat or THP-1 cells in RPMI media. […]
On the technique in general: A flow cytometer gives signals particle by particle.

For assay [2], the system named is sender and receiver HEK cells.
Description: For experiments that involved circuit senders and receivers, sender HEK cells were seeded on a 12-well plate at a density of 0.6 million cells per well (day 1). On the following day (day 2), using Lipofectamine 3000 (Thermo Fisher), we transfected the sender cells with 450 ng of pLVX-M-PURO plasmid containing the cargo, 450 ng of M-psPAX2, and 100 ng of pCMV-VSV-G. To generate VLPs encoding two cargoes, we performed similar transfections using two cargo-containing plasmids, each at 225 ng. At 8 hours post transfection, we removed the media containing residual Lipofectamine particles, washed the cells gently with fresh media, and replaced the media. One day after transfection of sender cells (day 3), we typically seeded receiver HEK cells on a 24-well plate at a density of around 0.3 million cells per well or on a 96-well plate at around 75,000 cells per well. We also tried other receiver densities, in which case we needed to dilute the cells if they approached confluency during the course of the experiment. Two days after transfection of sender cells (day 4), we collected the sender supernatant, centrifuged it at 3,000 g for 5 min to remove cell debris, and passed it through a cellulose acetate filter with 0.45 μm pore size (VWR). […] After about 40 hours, we collected the co-cultured cells, stained them with Sytox, and analyzed cell death by flow cytometry. […]
Assay [3] relates to HEK293FT cells. Kind of assay: Co-transfection time course, cell death every 24 h over 4 days. It counts as cell-based, human. To be noted: P3/P4-zipper reconstituted TEVP. The method, then: Moreover, it was evaluated if some of these mutations affect the maximal caspase activation accessible and the time dependency between caspase activation and cell death by co-transfecting (i) input proteases (P3/P4-zipper reconstituted TEVP as a positive control, split TEVP without reconstitution domain as a negative control, or NeoR to evaluate caspase baseline activity; all with IRES-BFP to enable expression tracking) and (ii) output caspase (“ENLYFQS” (SEQ ID NO: 2)/“ENLYFQQ” (SEQ ID NO: 4)/“ENLFFQQ” (SEQ ID NO: 7)+co-transfected GFP for expression tracking) in HEK293FT cells and measuring cell death every 24 h over the course of 4 days.

Assay [4] concerns HEK293FT cells. The assay is described as follows: Polytransfection of input proteases and caspase cleavage-site variants, Annexin staining. It counts as cell-based, human. The text has this:
The cleavage efficiency of proteases is known to depend on corresponding accessible cleavage sites. Mutations to native protease cleavage sites can slow (i) the recruitment of substrates to the protease active site, (ii) catalytic reaction steps, or (iii) the release of the substrate from the protease. As described herein, this property to modulate cell death executioner activation thresholds. Specifically, we surveyed the following constructs with modified protease cleavage sites across a wide range of possible cell death executioner and input protease expression regimes: […]
To evaluate how the mutated protease cleavage sites affect Caspase 3 activation, we polytransfected (i) input proteases (P3/P4-zipper reconstituted TEVP as a positive control, split TEVP without reconstitution domain as a negative control, or NeoR to evaluate caspase baseline activity; all with IRES-BFP to enable expression tracking) and (ii) output caspase (caspase+co-transfected GFP for expression tracking) in HEK293FT cells. Annexin staining as described above in Example 1 was used to quantify cell death.

B1: TEVP-activatable GSDMA: GSDMA with TEVP cleavage site between N-terminal and C-terminal domains; SEQ ID NO: 16 (protein)
chain: MGSPVFEDVTRALVRELNPRGDLTPLDSLIDFKHFRPFCLVLRKRKSTLFWGARYVRTDYTLLDLLEPGSSPSDLTDSGNFSFKNMLDVQVQGLVEVPKTVKVKGTAGLSQSSTLEVQTLSVAPSALENLKKERKLSADHSFLNEMRYHEKNLYVVMEAVEAKQEVTVEQTGNANAIFSLPSLALLGLQGSLNNNKAVTIPKGCVLAYRVRLLRVFLFNLWDIPYICNDSMQTFPKIRRVPCSAFISPTQMISEEPEEEKLIGEENLYFQSMHEDFKTLKEEVQRETQEVEKLSPVGRSSLLTSLSHLLGKKKELQDLEQKLEGALDKGQKVTLEALPKDVLLSKDAMDAILYFLGALTELTEEQLKILVKSLEKKILPVQLKLVESTLEQNFLQDKEGVFPLQPDLLSSLGEEELTLTEALVGLSGLEVQRSGPQYAWDPDTRHNLCALYAGLSLLHLLSRKSNALTYCALS
Take B1: the “mode of cell death, Sytox and Annexin double staining” value in assay [1] (background of TEVP activating TEVP-activatable caspase-3) was “converted apoptosis to pyroptosis”. Besides, the “cell death without the activating TEVP” value in assay [1] was “induced noticeable cell death even without the activating TEVP”. Besides, the sender cell death result in assay [2] is listed as “neither circuit component alone triggered substantial sender cell death”.

B2: TEVP-activatable caspase-3: caspase-3 whose cleavage site between large and small subunits was replaced by a TEVP cleavage site; SEQ ID NO: 10 (protein)
chain: MGSENTENSVDSKSIKNLEPKIIHGSESMDSGISLDNSYKMDYPEMGLCIIINNKNFHKSTGMTSRSGTDVDAANLRETFRNLKYEVRNKNDLTREEIVELMRDVSKEDHSKRSSFVCVLLSHGEEGIIFGTNGPVDLKKITNFFRGDRCRSLTGKPKLFIIQACRGTELDCGIETENLYFQSGVDDDMACHKIPVEADFLYAYSTAPGYYSWRNSKDGSWFIQSLCAMLKQYADKLEFMHILTRVNRKVATEFESFSFDATFHAKKQIPCIVSMLTKELYFYH
Consider B2, for which the Sytox uptake entry in assay [1] (co-transfected with TEVP) is listed as “only modestly took up Sytox”. Also, the “cell death without the activating TEVP” value in assay [1] is “induced noticeable cell death even without the activating TEVP”. The “cell death / apoptosis, Annexin staining” value in assay [1] (with TEVP, flow cytometry 16 to 24 hours after DNA transfection) is given as “ability of the modified caspase-3 to kill HEK cells when co-transfected with TEVP was verified”. Besides, the “maximal caspase activation / maximal fraction of dead cells” value in assay [3] was “comparable maximal fraction of dead cells”. In assay [4], the “activation at high caspase expression with non-reconstituted split protease” value is reported as “leaky activation”. Further, the “input/output expression required for caspase activation (activation threshold)” value in assay [4] (order, decreasing: ENLFFQQ, ENLFFQY, ENLYFQS+TEVP-cleavable DHFR, ENLFFQS~ENLYFQY~ENLYFQQ, ENLYFQS, both TEVP and TVMVP cleavage site) was “in decreasing order”.

B3: tobacco etch virus protease (protein)
chain: MGSGESLFKGPRDYNPISSTICHLTNESDGHTTSLYGIGFGPFIITNKHLFRRNNGTLLVQSLHGVFKVKNTTTLQQHLIDGRDMIIIRMPKDFPPFPQKLKFREPQREERICLVTTNFQTKSMSSMVSDTSCTFPSSDGIFWKHWIQTKDGQCGSPLVSTRDGFIVGIHSASNFTNTNNYFTSVPKNFMELLTNQEAQQWVSGWRLNADSVLWGGHKVFMVKPEEPFQPVKEATQLMNS
notes: viral input protease
On to B3, for which, in assay [1] (tev, tvmv and hcv sites), the “activation of cognate engineered GSDMs containing the cleavage sites” value was “orthogonally activated their cognate engineered GSDMs”. Besides, in assay [2], the sender cell death result is on record as “neither circuit component alone triggered substantial sender cell death”.
